# Experimental data from US20180312579A1 (Genentech, published 2018).
# Numbering of substitutions follows the chain as printed.
# B1: 26E11 (antibody, V domains shown)
# VH: EVQLQESGPSLVKPSQTLSLTCSVTGDSITSGYWSWIRKFPGNKLEFMGYISFSGKTYYIPSLKSRVSITRDTSKNQYYLQLNSVTTEDTATYYCATYHGYGGPWFAYWGQGTLVTVSS
# VL: DIKMTQSPSSMYASLGERVTITCKASQDIDSYLSWFQQKPGKSPKTLIYLTNRLIDGVPSRFSGSGSGQDYSLTINSLEYEDMGIYYCLQYDEFPVTFGAGTRLEIK
# notes: also called monoclonal antibody 26E11; anti-RSPO2/3 antibody
# B2: 1A1 (antibody, V domains shown)
# VH: EVQLVESGGGLVKPEGSLKLSCVASGFTFSDYFMSWVRQAPGQGLEWVAHIYTKTYNYATYYSGSVKGRFSISRDDSRNMVYLQMNNLRTEDTATYYCTTDEDWYFDFWGQGTQVTVSS
# VL: QPVLTQSPSVSASLGASVKLTCTLSSQHSTNYIEWYQQHPDKSPKFLMQVRDGSHSKGDGTPDRFSGSSSGAHRYLSISNLQLEDEAIYYCGLSDVSLYLFGSGTQLTLL
# notes: also called monoclonal antibody 1A1
# B3: 49G5 (antibody, V domains shown)
# VH: QVQLKESGPGLVQPSQTLSLTCTVSGFSLTSYNIHWVRQPPGKGLEWMGAVWRGGGTYYNSNLKSRVIITRDTSKSQVLLKLNNLQHEDTAMYYCAREELRYVYFDVWGQGIQVTVSS
# VL: B2 VL with V3L, H28Y, S29N, N31Y, V50L, R51S, T61I, L93V, L100V, L109V
# notes: also called monoclonal antibody 49G5
# B4: 36D2 (antibody, V domains shown)
# VH: QIQLQESGPGLVKPSQSLSLTCSVTGNSITSSDWSWIRQFPGKKLEWMGYMNYGGGTYYNPSLENRISITRDTSKNQFFLHLKSVTTEDTATYYCARERPHPYAYFDVWGQGIQVTVSS
# VL: ELVFTQPQSVSGSLGQEISISCTRSSGNIGSNYVSWYQQQSSNKPRLLIYKFDQRPSGVPDRFSGSTDSSSNSGILTISRLQPEDEGDYYCLSGYDKYVFGSGTQLTLL
# notes: also called monoclonal antibody 36D2
# Columns and labels:
# recombinant human RSPO2 = recombinant human RSPO2 (human, UniProt Q6UXX9 22-243); assay: cell-based or functional assay
# recombinant human RSPO3 = target: T1, recombinant human RSPO3 (human, UniProt Q9BXY4 22-272); assay: cell-based or functional assay
# T1 sequence: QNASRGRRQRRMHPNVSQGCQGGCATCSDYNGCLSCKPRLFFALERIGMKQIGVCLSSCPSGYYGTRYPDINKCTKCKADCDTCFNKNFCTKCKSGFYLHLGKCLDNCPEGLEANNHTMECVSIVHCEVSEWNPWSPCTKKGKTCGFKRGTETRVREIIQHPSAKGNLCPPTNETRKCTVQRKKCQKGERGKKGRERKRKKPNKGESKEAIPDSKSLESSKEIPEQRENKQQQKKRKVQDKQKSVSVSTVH
# cynomolgus RSPO3 = target: T2, cynomolgus RSPO3 (cynomolgus, UniProt A0A2K5UTQ7 22-273); assay: cell-based or functional assay
# T2 sequence: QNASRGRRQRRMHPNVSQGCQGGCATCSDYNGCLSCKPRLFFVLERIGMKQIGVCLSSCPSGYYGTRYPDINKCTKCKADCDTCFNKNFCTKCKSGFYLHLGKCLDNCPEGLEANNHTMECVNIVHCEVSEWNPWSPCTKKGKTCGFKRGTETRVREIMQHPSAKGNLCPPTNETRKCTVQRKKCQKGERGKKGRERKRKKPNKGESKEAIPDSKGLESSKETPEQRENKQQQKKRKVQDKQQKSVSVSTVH
# mouse RSPO3 = target: T3, mouse RSPO3 (mouse, UniProt Q2TJ95 22-277, limits assumed); assay: cell-based or functional assay
# T3 sequence (looked up): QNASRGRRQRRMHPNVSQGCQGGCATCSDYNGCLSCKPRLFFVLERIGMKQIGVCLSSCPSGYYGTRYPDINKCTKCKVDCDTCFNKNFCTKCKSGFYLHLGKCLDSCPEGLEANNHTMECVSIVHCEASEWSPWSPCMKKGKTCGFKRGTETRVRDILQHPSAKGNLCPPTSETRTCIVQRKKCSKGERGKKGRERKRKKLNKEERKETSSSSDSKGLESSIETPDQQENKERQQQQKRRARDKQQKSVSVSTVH
# cynomolgus RSPO2 = cynomolgus RSPO2 (cynomolgus, UniProt G7PCH9 22-243); assay: cell-based or functional assay
# mouse RSPO2 = mouse RSPO2 (mouse, UniProt Q8BFU0 22-205, limits assumed); assay: cell-based or functional assay
# [1] = target: T4, human RSPO2 with C-terminal HA tag, stably expressed in 293 cells (human, UniProt Q6UXX9 22-243); assay: IHC, FFPE 293 cell pellet, RSPO2 Hi
# T4 construct: Whole open reading frame was expressed from a lentiviral vector in HEK-293 cells sorted for high, medium or low expression; formalin-fixed paraffin-embedded pellets; also called hRSPO2; RSPO2 Hi
# [2] = target: T5, human RSPO3 with C-terminal HA tag, stably expressed in 293 cells (human, UniProt Q9BXY4 22-272); assay: IHC, FFPE 293 cell pellet, RSPO3 Hi
# T5 construct: Whole open reading frame expressed in HEK-293 cells (high, medium, low); FFPE pellets; also called hRSPO3; RSPO3 Hi
# T5 sequence: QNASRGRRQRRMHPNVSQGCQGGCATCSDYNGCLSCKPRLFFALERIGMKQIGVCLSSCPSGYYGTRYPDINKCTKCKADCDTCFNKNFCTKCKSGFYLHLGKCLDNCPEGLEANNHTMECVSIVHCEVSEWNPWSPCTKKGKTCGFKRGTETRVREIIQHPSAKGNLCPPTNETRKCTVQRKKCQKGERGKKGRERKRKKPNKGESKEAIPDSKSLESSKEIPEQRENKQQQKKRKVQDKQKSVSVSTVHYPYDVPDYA
# [3] = target: T4, human RSPO2 with C-terminal HA tag, …; assay: IHC, FFPE 293 cell pellet, RSPO2 Low
# [4] = target: T4, human RSPO2 with C-terminal HA tag, …; assay: IHC, FFPE 293 cell pellet, RSPO2 Med
# [5] = target: T5, human RSPO3 with C-terminal HA tag, …; assay: IHC, FFPE 293 cell pellet, RSPO3 Low
# [6] = target: T5, human RSPO3 with C-terminal HA tag, …; assay: IHC, FFPE 293 cell pellet, RSPO3 Med
# [7] = target: T6, human RSPO1 with C-terminal HA tag, stably expressed in 293 cells (human, UniProt Q2MKA7 21-263); assay: IHC, FFPE 293 cell pellet, RSPO1 Hi; - = not significant staining
# T6 construct: also called hRSPO1; RSPO1 Hi
# [8] = target: T7, human RSPO4 with C-terminal HA tag, stably expressed in 293 cells (human, UniProt Q2I0M5 20-234); assay: IHC, FFPE 293 cell pellet, RSPO4 Hi; - = not significant staining
# T7 construct: also called hRSPO4; RSPO4 Hi
# [9] = target: T8, FLAG-tagged human RSPO2 (Genentech) (human, UniProt Q6UXX9 22-243); assay: competitive binding ELISA: titrated against biotinylated RNF43-Flag (RNF43-ECD) binding to plate-coated hRSPO2; signal = bound RNF43, normalized OD
# T8 construct: also called hRSPO2; RSPO2 coated plates; not shown: FLAG tag
# [10] = target: T9, FLAG-tagged human RSPO3 (Genentech) (human, UniProt Q9BXY4 22-272); assay: competitive binding ELISA: titrated against biotinylated RNF43-Flag (RNF43-ECD) binding to plate-coated hRSPO3; signal = bound RNF43, normalized OD
# T9 construct: also called hRSPO3; RSPO3 coated plates; not shown: FLAG tag
# T9 sequence: T1 sequence
# [11] = target: T8, FLAG-tagged human RSPO2 (Genentech); assay: competitive binding ELISA: antibody titrated against LGR4-Fc (LGR4-ECD) binding to plate-coated hRSPO2; signal = bound LGR4-Fc, OD(450/630)/OD no antibody
# Description: (§1) To measure the activity of anti-RSPO antibodies in blocking the binding of LGR4 and -5 ECDs to RSPOs, MaxiSorp 384-well microwell plates (Thermo Scientific Nunc, Roskilde, Denmark) were coated with 25 ul/well of 0.5 μg/ml hRSPO2 or hRSPO3 (Genentech) in 50 mM carbonate buffer, pH 9.6, overnight at 4° C. Plates were blocked with at 80 ul/well of 0.5% bovine serum albumin, 15 parts per million Proclin 300 in phosphate buffered saline (PBS), pH 7.4, for 1 hour. Serially diluted anti-RSPO antibodies ([…] in […] serial dilution plus buffer blank) containing 0.1 μg/ml LGR4-Fc or 0.015 μg/ml LGR5-Fc in assay buffer (0.5% BSA, 0.05% polysorbate 20, 15 parts per million Proclin 300 in PBS) were added to the plates at 25 ul/well. After a 2-hour incubation, LGR4-Fc and LGR5-Fc bound to the plates were detected using peroxidase labeled goat F(ab′)2 anti-human Fc (Jackson ImmunoResearch, West Grove, Pa.). After a 1 hour incubation, the substrate 3,3′,5,5′-tetramethyl benzidine (Moss Inc., Pasadena, Md.) was added to the plates and the reaction was stopped by adding 1 M phosphoric acid. Plates were washed with PBS, pH 7.4, containing 0.05% tween 20, between steps and all the incubation steps following the coating step were performed at room temperature on an orbital shaker. Absorbance was read at 450 nm on a multiskan Ascent reader (Thermo Scientific, Hudson, N.H.).
# [12] = target: T9, FLAG-tagged human RSPO3 (Genentech); assay: competitive binding ELISA: antibody titrated against LGR4-Fc (LGR4-ECD) binding to plate-coated hRSPO3; signal = bound LGR4-Fc, OD(450/630)/OD no antibody
# Description: as §1
# [13] = target: T10, human RSPO2 L186P variant (human, UniProt Q6UXX9 22-243); assay: cell-based or functional assay
# T10 chain: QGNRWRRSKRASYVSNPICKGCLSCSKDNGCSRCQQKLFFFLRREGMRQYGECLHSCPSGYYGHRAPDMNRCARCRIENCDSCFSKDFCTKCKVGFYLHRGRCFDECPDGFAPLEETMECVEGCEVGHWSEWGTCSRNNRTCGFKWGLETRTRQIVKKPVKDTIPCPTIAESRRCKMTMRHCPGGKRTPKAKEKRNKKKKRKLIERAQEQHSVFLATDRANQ
# [14] = target: T5, human RSPO3 with C-terminal HA tag, …; assay: IHC, FFPE 293 cell pellet, RSPO3 Hi; - = not significant staining
# Chain of mouse RSPO2 (Q8BFU0 22-205 limits assumed): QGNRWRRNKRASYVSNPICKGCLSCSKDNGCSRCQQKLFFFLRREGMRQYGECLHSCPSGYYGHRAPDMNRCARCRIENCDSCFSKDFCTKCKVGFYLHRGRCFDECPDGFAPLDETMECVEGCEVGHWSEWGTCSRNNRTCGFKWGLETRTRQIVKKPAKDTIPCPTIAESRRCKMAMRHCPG
# T7 sequence (Q2I0M5 other isoform, or with tags, fused parts or gaps limits assumed): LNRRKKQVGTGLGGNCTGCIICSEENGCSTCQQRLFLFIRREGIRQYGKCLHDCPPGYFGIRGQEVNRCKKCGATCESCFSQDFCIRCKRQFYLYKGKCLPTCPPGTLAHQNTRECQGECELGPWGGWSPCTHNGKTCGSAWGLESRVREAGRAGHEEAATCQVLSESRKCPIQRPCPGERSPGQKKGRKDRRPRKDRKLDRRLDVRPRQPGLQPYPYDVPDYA
# T6 sequence (Q2MKA7 other isoform, or with tags, fused parts or gaps limits assumed): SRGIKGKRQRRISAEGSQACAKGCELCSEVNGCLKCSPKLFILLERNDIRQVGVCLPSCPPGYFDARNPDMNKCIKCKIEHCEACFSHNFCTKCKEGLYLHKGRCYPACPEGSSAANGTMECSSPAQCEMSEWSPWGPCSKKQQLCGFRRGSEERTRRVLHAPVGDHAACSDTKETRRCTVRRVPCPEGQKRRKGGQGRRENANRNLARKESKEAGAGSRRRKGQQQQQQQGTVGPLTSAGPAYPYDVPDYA
Binder,"IC50, WNT luciferase reporter, bivalent antibody (recombinant human RSPO2) [pM]","IC50, WNT luciferase reporter, bivalent antibody (recombinant human RSPO3) [pM]","IC50, WNT luciferase reporter, bivalent antibody (cynomolgus RSPO3) [pM]","IC50, WNT luciferase reporter, bivalent antibody (mouse RSPO3) [pM]","IC50, WNT luciferase reporter, bivalent antibody (cynomolgus RSPO2) [pM]","IC50, WNT luciferase reporter, bivalent antibody (mouse RSPO2) [pM]",percentage of cells staining [1] [%],percentage of cells staining [3] [%],percentage of cells staining [4] [%],binding result [7],binding result [8],IC50 (read off the curve) [9] [µg/mL],"IC50 (read off the curve), WNT reporter RLU stimulated by 38 pM rhRSPO2 L186P [13] [pM]",binding result [14],further results
B1,9800,0.01,0.2,0.4,2700,24000,70,10,40,no binding,no binding,~0.1,,,percentage of cells staining [2]: 90%; percentage of cells staining [5]: 50%; percentage of cells staining [6]: 70%; IC50 (read off the curve) [10]: ~0.08 µg/mL; IC50 (read off the curve) [11]: ~0.09 µg/mL; IC50 (read off the curve) [12]: ~0.1 µg/mL
B2,0.4,> 500000,> 500000,> 500000,0.5,2.2,80,30,40,no binding,no binding,~0.1,~0.6,no binding,EC50 (read off the curve) [11]: ~0.07 µg/mL
B3,,,,,,,95,40,60,no binding,no binding,,,no binding,
B4,12,> 500000,> 500000,> 500000,13,44,> 95,< 5,50,no binding,no binding,~1,~20,no binding,
